Source: publication PMC5583970

Target: His-FOR20 (UniProt Q96NB1)
Test: pull-down; purified His-FOR20 (1 μM) and tubulin dimers (1–8 μM) on ice for 1 h, Ni-NTP beads 30 min, supernatant and pellet on Coomassie gel, band intensities fitted to n identical independent sites; apparent Kd

UniProt Q96NB1, sequence (Q96NB1 whole entry): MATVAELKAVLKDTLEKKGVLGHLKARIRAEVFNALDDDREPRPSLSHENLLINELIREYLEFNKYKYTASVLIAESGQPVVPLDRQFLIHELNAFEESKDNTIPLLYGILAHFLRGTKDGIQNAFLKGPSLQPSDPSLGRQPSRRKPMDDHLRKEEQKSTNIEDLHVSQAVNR

Kd: 3.5 µM
stoichiometry N (tubulin dimers per FOR20): 6
Substance: free tubulin dimers (αβ-tubulin heterodimers) (from UniProt P02550 1-451; P02554 1-445) (complex)
